Measurements as given in US20240299596A1, “METHODS AND MATERIALS FOR COMBINING BIOLOGICS WITH MULTIPLE CHELATORS” (priority 2021, published 2024).

What was measured:
[1] = in vitro; type: in vitro ADME, mouse
Protocol: The stability of the ^64Cu-Conjugate 2 was tested in mouse serum and human serum at 37° C. using the Rad-iTLC method. Approximately 1.0 mL of mouse serum was extracted from blood of the mice and ˜1.0 mL of human serum was extracted from blood obtained from the Mayo Clinic's blood bank to measure the stability of radiolabeled ^64Cu-Conjugate 2. Obtained mouse and human serums were distributed separately in 100 μL aliquots in 1.5 mL microcentrifuge tubes (n=3). To which, 20 μL of ^64Cu-Conjugate2 was added in each 100 μL serum aliquot and mixed thoroughly. From this mixture, a small amount of reaction mixture was taken out using glass capillary tube and immediately spotted on an iTLC plate for analysis as T=0 timepoint (n=3). The rest of the reaction mixtures were incubated at 37° C. for up to 2 hours and small fractions were taken out at 1 hour and 2 hours post incubation to analyze the stability of ^64Cu-Conjugate 2 over time using radioactive thin layer chromatography (r-TLC). To do r-TLC analysis, iTLC (silica gel coated on paper, Agilent Technologies Inc., Santa Clara, CA) was used as a solid phase and 0.1M sodium citrate as a mobile phase. In this r-TLC condition, unconjugated (free)^64Cu moves to the solvent front of the r-TLC and radiolabeled ^64Cu-Conjugate 2 stays at the origin of the r-TLC plate. Based on the relative % of radioactivity at origin and at the solvent front, the % of intact ^64Cu-Conjugate2 and free ^64Cu was measured as presented in Tables 35 and 36.

[2] = Micro PET imaging and ex-vivo biodistribution (SUV) in normal nude mice; design: species or system normal nude mice (strain: 002019, NU/J); settings: mouse
Excerpt: in accordance with Loening AM and Gambhir SS. […] Mol Imaging 2003; 2:131-7.

[3] = Stability of ^64Cu-Conjugate 2 over time by TLC; type: physicochemical; settings: silica gel, 0.1M sodium citrate
Protocol: The Conjugate-1 was radiolabeled with Cu-64 using [^64Cu]CuCl2 produced from cyclotron and formulated in 0.1M hydrochloric acid. Different amounts (50 μg, 100 μg) of Conjugate-1 were used and the pH was adjusted to 5.0 using 0.1M sodium acetate after addition of [^64Cu]CuCl2. The resultant reaction mixture was stirred at room temperature for different durations as 10 minutes, 20 minutes, 30 minutes, and 40 minutes to optimize radiolabeling yield with reaction time. The progress and yield of the reactions were monitored by radioactive thin layer chromatography (r-TLC) using iTLC (silica gel coated on paper, Agilent Technologies Inc., Santa Clara, CA) and 0.1M sodium citrate as a mobile phase. In this r-TLC condition, unconjugated (Free)^64Cu moves to the solvent front of the r-TLC and radiolabeled ^64Cu-Conjugate-1 stays at the origin of the r-TLC plate. Based on our tested radiolabeling condition, the reaction achieved >99% yield radiolabeling in 10 minutes and at all other time points at pH 5.0 using sodium acetate as a reaction buffer via stirring at room temperature. Formation of radiolabeled ^64Cu-Conjugate-1 was also confirmed by radio HPLC.
The TLC was performed with a silica gel solid phase and 0.1M sodium citrate mobile phase.
The stability of the ^64Cu-Conjugate 2 was also analyzed by TLC using the same TLC method as the ^64Cu-Conjugate 1 at various time points. The time points included: 40 minutes (Table 31 and FIG. 26), 2 hours (Table 32 and FIG. 27), 4 hours (Table 33 and FIG. 28), 8 hours (Table 34 and FIG. 29).

[4] = Stability of ^64Cu-Conjugate 2 over time by HPLC; type: physicochemical
Protocol: The method used a Schmadzu HPLC system, which was equipped with dual UV and radioactivity detectors. […] Conjugate 2 was tested with varying concentrations (Table 18A below). […] For analysis, the compound was dissolved in water and a calibration curve was prepared to estimate the specific activity of the synthesized compound. Depending upon the chemical nature of the compound a different retention time was observed.
The stability of the ^64Cu-Conjugate 2 was tested using the same HPLC method as the Conjugate 2 at various time points. The time points included: 40 minutes (Tables 23-24 and FIG. 22), 2 hours (Tables 25-26 and FIG. 23), 4 hours (Tables 27-28 and FIG. 24), and 8 hours (Tables 29-30 and FIG. 25).

NC(=O)CN1CCN(CC(N)=O)CCN(CC(N)=O)C(Cc2ccc(NC(=S)NCCN(CCNC(=S)Nc3ccc(CC4CN(CC(=O)O)CCN(CC(=O)O)CCN4CC(=O)O)cc3)C(=O)Cc3ccc(NC(=S)NCCCC[C@H](NC(=O)N[C@@H](CCC(=O)O)C(=O)O)C(=O)O)cc3)cc2)CN(CC(N)=O)CC1 (some centres unmarked) [^64Cu-Conjugate 2, metal not drawn]
Intact (%), Average [1]: 98.26%
Stability in mouse serum (in words) [1]: stable up to 2 hours in mouse serum
remaining at 1 h ([1]; mouse, serum): 96.8%
remaining at 2 h ([1]; mouse, serum): 97.6%
Site of accumulation in PET image [2]: accumulates in proximal tubules in the kidney
% of ROI, Rgn 1 (origin, radiolabeled conjugate) ([3]; 40 minutes): 99.62%
% of ROI, Rgn 2 (solvent front, free ^64Cu) ([3]; 40 minutes): 0.38%
% of ROI, Rgn 1 (origin, radiolabeled conjugate) ([3]; 2 hours): 99.40%
% of ROI, Rgn 2 (solvent front, free ^64Cu) ([3]; 2 hours): 0.60%
% of ROI, Rgn 2 (solvent front, free ^64Cu) ([3]; 4 hours): 0.36%
% of ROI, Rgn 1 (origin, radiolabeled conjugate) ([3]; 8 hours): 99.19%
% of ROI, Rgn 2 (solvent front, free ^64Cu) ([3]; 8 hours): 0.81%
% Conc. of main HPLC peak ([4]; 40 minutes, Table 23 trace, peak at Ret. Time 9.335): 99.894%
% Conc. of main HPLC peak ([4]; 40 minutes, Table 24 trace, peak at Ret. Time 8.609): 98.297%
% Conc. of main HPLC peak ([4]; 2 hours, Table 25 trace, peak at Ret. Time 9.298): 99.770%
% Conc. of main HPLC peak ([4]; 2 hours, Table 26 trace, peak at Ret. Time 8.572): 98.718%
% Conc. of main HPLC peak ([4]; 4 hours, Table 27 trace, peak at Ret. Time 9.286): 99.463%
% Conc. of main HPLC peak ([4]; 4 hours, Table 28 trace, peak at Ret. Time 8.555): 98.453%
% Conc. of main HPLC peak ([4]; 8 hours, Table 29 trace, peak at Ret. Time 9.359): 99.107%
% Conc. of main HPLC peak ([4]; 8 hours, Table 30 trace, peak at Ret. Time 8.562): 98.173%
